Measured values published in patent US20260115250A1, “METHODS OF TREATING AGE-RELATED MACULAR DEGENERATION” (Character Biosciences, Inc., priority 2022, published 2026).

Experiments:
[1] = DMPC solubility assay, 0.5 mM DMPC (turbidity reduction); assay type: biochemical; conditions: FIGS. 2A-2D and 3A-3C
Experimental: In this example, peptide stocks were diluted to 200 μM in H2O (a 2× solution) and 50 μL of peptide solution was transferred in triplicate into 96-well plates. A one mM solution of 1,2-dimyristoyl-sn-glycero-3-phosphocholine (DMPC) in H2O was prepared, and using a multichannel pipet, 50 μL DMPC solution was rapidly added to the plate. Peptide and lipid solutions were incubated at room temperature for 15 minutes with a final concentration of 100 μM peptides and 0.5 mM DMPC. After 15 minutes, absorbance was read on a plate reader at 405 nm. […] Data are presented as mean+SD over two runs.
In these experiments, DMPC solubility titration curves were generated. Peptide stocks were diluted to 200 μM in H2O (a 2× solution) and serially diluted in H2O over 4 concentrations, then 50 μL of peptide solutions were distributed in triplicate into 96-well plates. A 1 mM solution of 1,2-dimyristoyl-sn-glycero-3-phosphocholine (DMPC) in H2O was prepared, and using a multichannel pipet, 50 μL DMPC solution was rapidly added to the plate. Peptide and lipid solutions were incubated at room temperature for 15 minutes with final concentrations of 3.16-100 μM peptides and 0.5 mM DMPC. After 15 minutes, absorbance was read on a plate reader at 405 nm. […] Data are presented as mean+SD over two runs. Non-linear regression was used to calculate EC50 values.

LDLR = LDLR (Homo sapiens, UniProt P01130); assay: lipid-dependent LDLR binding (SPR), single concentration; conditions: 1 μM peptide with or without 25 μM DMPC
Chain of LDLR (P01130 22-860): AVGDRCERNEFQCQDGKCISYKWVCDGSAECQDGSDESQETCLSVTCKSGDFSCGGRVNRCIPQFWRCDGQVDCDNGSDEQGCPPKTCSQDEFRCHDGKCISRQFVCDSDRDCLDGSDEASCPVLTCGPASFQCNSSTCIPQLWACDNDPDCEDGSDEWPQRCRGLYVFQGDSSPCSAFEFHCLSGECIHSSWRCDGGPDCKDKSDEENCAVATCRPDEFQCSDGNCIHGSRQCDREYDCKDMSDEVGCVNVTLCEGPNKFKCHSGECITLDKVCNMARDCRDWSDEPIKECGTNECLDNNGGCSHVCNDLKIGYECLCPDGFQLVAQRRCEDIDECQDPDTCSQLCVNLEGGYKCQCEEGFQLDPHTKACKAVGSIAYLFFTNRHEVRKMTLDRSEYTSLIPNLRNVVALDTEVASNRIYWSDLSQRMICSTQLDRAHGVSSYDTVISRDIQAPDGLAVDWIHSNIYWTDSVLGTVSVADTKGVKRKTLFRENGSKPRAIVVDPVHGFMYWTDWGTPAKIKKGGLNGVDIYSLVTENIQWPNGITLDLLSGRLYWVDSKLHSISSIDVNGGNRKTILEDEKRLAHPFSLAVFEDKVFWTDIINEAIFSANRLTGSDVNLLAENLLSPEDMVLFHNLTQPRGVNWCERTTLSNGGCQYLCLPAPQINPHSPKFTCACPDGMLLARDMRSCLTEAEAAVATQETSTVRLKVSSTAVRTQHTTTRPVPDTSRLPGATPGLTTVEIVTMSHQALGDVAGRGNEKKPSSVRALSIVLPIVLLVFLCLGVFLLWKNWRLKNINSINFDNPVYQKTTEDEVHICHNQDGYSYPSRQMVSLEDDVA
Experimental: Peptides were diluted in 1×HBS-N buffer with 1 mM CaCl2 to a final concentration of 1 μM and incubated with or without 25 μM DMPC for 1 hour at RT to form lipid complexes. Each peptide was tested in duplicate. LDLR was diluted to 10 μg/mL in 10 mM acetate buffer pH 4.5 and was immobilized (˜400RU) on a CM5 chip via amine coupling utilizing 1×HBS-P+ buffer with 1 mM CaCl2. Test peptides (with or without DMPC) were exposed to immobilized LDLR at a flow rate of […] for 120 seconds in HBS-N with 1 mM CaCl2. Between cycles the surface was regenerated with 3, 30 second injections of 10 mM NaOH and 100 mM EDTA. Data are plotted as max RU values, averaged from three separate runs.

ARPE-19 cells = assay: ARPE-19 GAG-dependent cholesterol import (with or without heparin); assay type: cell-based, human; conditions: ARPE-19, 10 μM peptide
Experimental: ARPE-19 cells were seeded on 96-well plates at 25,000 cells per well and grown to confluence. A 2× solution of 500 μM DMPC and 50 μM BODIPY-Cholesterol with or without 100 µg/mL heparin was prepared in serum free DMEM: F12. Peptides were diluted to 20 μM in serum free DMEM: F12 (a 2× solution). Peptides were added to lipid solution in equal parts (60 μL each) and incubated for 1 hour at 37° C. ARPE-19 cells were serum starved in serum free DMEM: F12 for 1 hour at 37° C. Peptide: Lipid complexes (100 μL total volume per well) were transferred to ARPE-19 cells for 2 hours at 37° C. Cells were washed, fixed, and intracellular fluorescence was read on Promega GloMax at 475 nm excitation, 500-550 emission. Fluorescence values were background corrected from no treatment conditions. Data are presented ±SD for 2 runs.

[2] = peptide binding to non-oxidized and oxidized lipids (SPR); conditions: immobilized peptide; RU normalized to DMPC
Experimental: FIGS. 25A-25O show peptide binding activity to non-oxidized and oxidized lipids via SPR for indicated peptides. Peptides were reconstituted to 50 μg/mL in 10 mM acetate buffer, pH 4.5 and immobilized to ˜200 RU on a CM5 chip via amine coupling. Non-oxidized lipids (DMPC & POPC) and oxidized lipids (POVPC & KOdiA-PC) were diluted to 100 µM in HBS-EP running buffer and exposed to the chip for binding (n=3) at a flow rate of […] for 120 seconds. The surface was regenerated with 20% EtOH. T-001 served as a positive control and T-031 served as a negative control on each chip. For each peptide, the RU response for all lipids was normalized to the DMPC RU values.

lipid-dependent LDLR binding (RU with lipid vs peptide alone) (LDLR): lipid-dependent LDLR binding activity
B1: T-013: therapeutic peptide (peptide)
chain: TRARLSKELQAAQARLGADMEDVRGRLVQYRGEVQAMLGQSTEELRVRLASHLRKLRKRLLRDADDLQKRLAVYQA
DMPC solubilizing activity [1]: significant activity
GAG dependence of cholesterol import (ARPE-19 cells): rely on GAG binding for cholesterol import activity
binding to oxidized lipids relative to DMPC [2]: binding to at least one oxidized lipid that was equivalent or improved to binding against DMPC
